The record followed here is patent US20250289865A1 (TIOC THERAPEUTICS, published 2025).

Experiment [1] concerns the target … short peptide (AFP 158-166) presented on the HLA-A*0201 molecule. Description: cell-based or functional assay.
The target of experiment [2] is T1, AFP peptide on HLA-A*02:01 (human).
T1 peptide: FMNKFIYEI
Description: killing.

In experiment [3] the target is peptide on A2 positive (human). The experiment in a line: LDH release; CD8+ T cells, E:T 1:1; AFP-negative, A2-positive control cells. No unit is printed with the value.; fusion: antibody heavy chain variable region (Gln105Cys) on the beta chain, with free VL Ala43Cys. To be noted: chains Valpha:Vbeta. On the technique in general: LDH in the medium is a marker of cell lysis.

B1: VH105-TCR β-AFP multi-domain bifunctional fusion molecule (other)
TCR alpha: SQQGEEDPQALSIQEGENATMNCSYKDRITNLQWYRQNSGRGLVHLILIRSNEREKHSGRLRVTLDTSKKSSSLLITASRAADTASYFCATDLEAEYKYIFGTGTRLKVLANIQNPDPAVYQLRDSKSSDKSVCLFTDFDSQTNVSQSKDSDVYITDKTVLDMRSMDFKSNSAVAWSNKSDFACANAFNNSIIPEDTFFCSPESS
chain: EVQLVESGGGLVQPGGSLRLSCAASGYSFTGYTMNWVRQAPGKGLEWVALINPYKGVSTYNQKFKDRFTISVDKSKNTAYLQMNSLRAEDTAVYYCARSGYYGDSDWYFDVWGCGTLVTVSSGGGGSETGVTQSPTHLIKTRGQQVTLRCSSQSGHNTVSWYQQALGQGPQFIFQYYRQVANGRGNFPPRFSGLQFPNYSSELNVNALELDDSALYLCASSKDAGPVFFGQGTRLTVVEDLKNVFPPEVAVFEPSECEISHTQKATLVCLATGFYPDHVELSWWVNGKEVHSGVSTDPQPLKEQPALNDSRYALSSRLRVSATFWQNPRNHFRCQVQFYGLSENDEWTQDRAKPVTQIVSAEAWGRAD
VL: DIQMTQSPSSLSASVGDRVTITCRASQDIRNYLNWYQQKPGKCPKLLIYYTSRLESGVPSRFSGSGSGTDYTLTISSLQPEDFATYYCQQGNTLPWTFGQGTKVEIKR
For B1, the “EC50 of CD8+ T cell killing (LDH release), HepG2 (A2 positive, AFP positive)” value in experiment [1] is 0.0105 µM.

B2: AFP TCR (TCR, V domains shown)
Valpha: SQQGEEDPQALSIQEGENATMNCSYKDRITNLQWYRQNSGRGLVHLILIRSNEREKHSGRLRVTLDTSKKSSSLLITASRAADTASYFCATDLEAEYKYIFGTGTRLKVLA
Vbeta: ETGVTQSPTHLIKTRGQQVTLRCSSQSGHNTVSWYQQALGQGPQFIFQYYRQVANGRGNFPPRFSGLQFPNYSSELNVNALELDDSALYLCASSKDAGPVFFGQGTRLTVV
Regarding B2, the binding result in experiment [2] is on record as “recognises”. In experiment [3], this molecule gave an EC50 of fusion protein in killing of 2.7 µM.
